Measurements taken from the supplement of paper PMC7877785.
± gives the uncertainty stated by the source.

Experiment: self-splicing fitness, log relative to wild type (ln ratio); higher = more splicing; Tetrahymena group I intron in knt gene, E. coli kanamycin selection, DiMSum; sequences stand for … in CUCUCU…GGAGGGAAAAGUUAUCAGGCAUGCACCUGGUAGCUAGUCUUUAAACCAAUAGAUUGCAUCGGUUUAAAAGGCAAGACCGUCAAAUUGCGGGAAAGGGGUCAACAGCCGUUCAGUACCAAGUCUCAGGGGAAACUUUGAGAUGGCCUUGCAAAGGGUAUGGUAAUAAGCUGACGGACAUGGUCCUAACCACGCAGCCAAGUCCUAAGUCAACAGAUCUUCUGUUGAUAUGGAUGCAGUUCACAGACUAAAUGUCGGUCGGGGAAGAUGUAUUCUUCUCAUAAGAUAUAGUCGGACCUCUCCUUAAUGGGAGCUAGCGGAUGAAGUGAUGCAACACUGGAGCCGCUGGGAACUAAUUUGUAUGCGAAAGUAUAUUGAUUAGUUUUGGAGUACUCGUGGUCG
How it was run: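 Six replicate transformations of E. coli BL21(DE3) with a pET-22b(+) library were grown overnight at 37°C or 30°C. The library randomised all eight P1ex-region intron nucleotides, the intron lying in the knt kanamycin-resistance gene, and plates were LB agar with or without 25 μg/mL kanamycin plus 100 μg/mL carbenicillin, 50 μM IPTG and 0.2% rhamnose. Pooled colonies were amplicon-sequenced on an Illumina HiSeq 2500, and fitness is the DiMSum error-weighted combination of wild-type-normalised replicate fold changes, kanamycin versus none.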

| Sequence | self-splicing fitness (ln) (30 °C) | self-splicing fitness (ln) (37 °C) |
| --- | --- | --- |
| GCUCAGCAAUAUUACGGCUG | -2.99 ± 0.29 | -2.1 ± 0.34 |
| GCUCAGCAAUAUUACGGUCG | -2.35 ± 0.14 | -0.924 ± 0.14 |
| GCUCAGCAAUAUUACGUAAU | -0.739 ± 0.072 | 0.436 ± 0.092 |
| GCUCAGCAAUAUUACGUACA | -2.16 ± 0.12 | -0.932 ± 0.14 |
| GCUCAGCAAUAUUACGUACC | 0.00766 ± 0.067 | 0.487 ± 0.1 |
| GCUCAGCAAUAUUACGUACG | -1.72 ± 0.11 | -0.485 ± 0.09 |
| GCUCAGCAAUAUUACGUCAA | -1.84 ± 0.16 | -1.77 ± 0.22 |
| GCUCAGCAAUAUUACGUCAU | -2.27 ± 0.06 | -1.26 ± 0.074 |
| GCUCAGCAAUAUUACGUCUU | -0.48 ± 0.054 | -0.252 ± 0.066 |
| GCUGAGCAAUAUUACGACAG | -1.05 ± 0.31 |  |
| GCUGAGCAAUAUUACGAGCU | -3.66 ± 0.34 | -1.82 ± 0.22 |
| GCUGAGCAAUAUUACGAUAU | -2.62 ± 0.28 | -1.08 ± 0.2 |
| GCUGAGCAAUAUUACGAUGA | -1.11 ± 0.13 | -1.07 ± 0.15 |
| GCUGAGCAAUAUUACGCAAG | -3.22 ± 0.3 | -2.73 ± 0.44 |
| GCUGAGCAAUAUUACGCCGC | -2.62 ± 0.34 |  |
| GCUGAGCAAUAUUACGCGAA |  | -2.91 ± 0.37 |
| GCUGAGCAAUAUUACGCGAC | -3.36 ± 0.32 | -1 ± 0.3 |
| GCUGAGCAAUAUUACGCGCA | -1.72 ± 0.4 |  |
| GCUGAGCAAUAUUACGCGUU | -2.22 ± 0.15 | -1.73 ± 0.22 |
| GCUGAGCAAUAUUACGGCGA | -1.43 ± 0.16 | -1.56 ± 0.2 |
| GCUGAGCAAUAUUACGGGAC | -1.25 ± 0.13 | -2.16 ± 0.22 |
| GCUGAGCAAUAUUACGGUGC | -3.9 ± 0.3 | -1.61 ± 0.22 |
| GCUGAGCAAUAUUACGGUGU | -2.14 ± 0.077 | -1.8 ± 0.091 |
| GCUGAGCAAUAUUACGUAAA | -2.97 ± 0.19 | -2.31 ± 0.17 |
| GCUGAGCAAUAUUACGUAAG | -1.55 ± 0.12 | -0.739 ± 0.16 |
| GCUGAGCAAUAUUACGUAGA | -2.41 ± 0.2 | -0.888 ± 0.21 |

| Sequence | self-splicing fitness (ln) (30 °C) | self-splicing fitness (ln) (37 °C) |
| --- | --- | --- |
| GCUGAGCAAUAUUACGUAUU | -4.1 ± 0.28 | -2.3 ± 0.22 |
| GCUGAGCAAUAUUACGUCCC | -0.877 ± 0.092 | -0.184 ± 0.11 |
| GCUGAGCAAUAUUACGUCCG | -2.38 ± 0.23 | -2.3 ± 0.31 |
| GCUGAGCAAUAUUACGUGUC | -2.78 ± 0.18 | -1.3 ± 0.16 |
| GCUGAGCAAUAUUACGUUGG | -2.52 ± 0.26 | -1.9 ± 0.28 |
| GCUGAGCAAUAUUACGUUUC | -1.94 ± 0.18 | -1.55 ± 0.2 |
| GCUUAGCAAUAUUACGAAGC | -4.18 ± 0.31 | -4.66 ± 0.36 |
| GCUUAGCAAUAUUACGAGAG | -1.52 ± 0.23 | -0.67 ± 0.2 |
| GCUUAGCAAUAUUACGAGCG | -2.44 ± 0.26 | -1.1 ± 0.16 |
| GCUUAGCAAUAUUACGAUAC | -1.65 ± 0.2 | 0.185 ± 0.23 |
| GCUUAGCAAUAUUACGAUGU | -0.306 ± 0.083 | -0.00189 ± 0.11 |
| GCUUAGCAAUAUUACGCAAG |  | -2.44 ± 0.34 |
| GCUUAGCAAUAUUACGCACG | -2.19 ± 0.092 | -0.388 ± 0.1 |
| GCUUAGCAAUAUUACGCCAC | -1.67 ± 0.32 | -1.17 ± 0.45 |
| GCUUAGCAAUAUUACGCUCU | -0.864 ± 0.12 | -0.504 ± 0.12 |
| GCUUAGCAAUAUUACGGACU | -0.304 ± 0.085 | 0.4 ± 0.093 |
| GCUUAGCAAUAUUACGGCUA | -0.299 ± 0.24 | -1.61 ± 0.27 |
| GCUUAGCAAUAUUACGGGGA | -1.05 ± 0.11 | -0.712 ± 0.12 |
| GCUUAGCAAUAUUACGGUAC | -1.91 ± 0.14 | -0.938 ± 0.19 |
| GCUUAGCAAUAUUACGGUCC | -0.86 ± 0.17 | 0.242 ± 0.25 |
| GCUUAGCAAUAUUACGUACU | -0.712 ± 0.1 | -0.0558 ± 0.13 |
| GCUUAGCAAUAUUACGUAGA | -0.53 ± 0.076 | 0.396 ± 0.093 |
| GCUUAGCAAUAUUACGUAGG | -1.51 ± 0.11 | -0.916 ± 0.14 |
| GCUUAGCAAUAUUACGUAUA | -1.24 ± 0.072 | -1.15 ± 0.094 |
| GCUUAGCAAUAUUACGUAUU | -0.48 ± 0.12 | 0.669 ± 0.15 |
| GCUUAGCAAUAUUACGUCGG | -1.89 ± 0.13 | -1.75 ± 0.18 |

| Sequence | self-splicing fitness (ln) (30 °C) | self-splicing fitness (ln) (37 °C) |
| --- | --- | --- |
| GCUUAGCAAUAUUACGUGCA | -1.11 ± 0.11 | -0.319 ± 0.13 |
| GCUUAGCAAUAUUACGUGGA | -2.06 ± 0.13 | -0.531 ± 0.11 |
| GCUUAGCAAUAUUACGUUCU | -1.03 ± 0.095 | 0.0827 ± 0.1 |
| GCUUAGCAAUAUUACGUUUU | -1.68 ± 0.068 | -0.474 ± 0.075 |
| GGAAAGCAAUAUUACGAACU | -0.854 ± 0.1 | 0.214 ± 0.12 |
| GGAAAGCAAUAUUACGAAUU | -1.96 ± 0.16 | -1.4 ± 0.12 |
| GGAAAGCAAUAUUACGACAG | -2.98 ± 0.14 | -2.17 ± 0.22 |
| GGAAAGCAAUAUUACGAGCA | -1.01 ± 0.078 | -0.54 ± 0.083 |
| GGAAAGCAAUAUUACGAGCC | -1.45 ± 0.12 | -0.842 ± 0.17 |
| GGAAAGCAAUAUUACGAUAU | -0.885 ± 0.076 | -0.58 ± 0.1 |
| GGAAAGCAAUAUUACGCCAC | -2.68 ± 0.33 |  |
| GGAAAGCAAUAUUACGCCUG | -1.73 ± 0.34 |  |
| GGAAAGCAAUAUUACGCGCU | -3.27 ± 0.38 | -1.37 ± 0.26 |
| GGAAAGCAAUAUUACGCUAA | -0.882 ± 0.25 | -1.08 ± 0.27 |
| GGAAAGCAAUAUUACGGACC | -2.35 ± 0.36 | -1.44 ± 0.41 |
| GGAAAGCAAUAUUACGGACU | -1.51 ± 0.27 | -0.961 ± 0.28 |
| GGAAAGCAAUAUUACGGAGA | -1.97 ± 0.27 | -2.54 ± 0.26 |
| GGAAAGCAAUAUUACGGCUC | -0.254 ± 0.13 | 0.018 ± 0.16 |
| GGAAAGCAAUAUUACGGGUG | -1.91 ± 0.14 | -1.78 ± 0.15 |
| GGAAAGCAAUAUUACGUAUU | -1.25 ± 0.13 | -1.45 ± 0.16 |
| GGAAAGCAAUAUUACGUCCA | -1.37 ± 0.28 | -0.294 ± 0.26 |
| GGAAAGCAAUAUUACGUCUA | -0.626 ± 0.11 | 0.689 ± 0.14 |
| GGAAAGCAAUAUUACGUGAU | -2.79 ± 0.086 | -1.76 ± 0.089 |
| GGAAAGCAAUAUUACGUGCA | -0.965 ± 0.075 | 0.36 ± 0.099 |
| GGAAAGCAAUAUUACGUUUG | -3.17 ± 0.26 | -1.79 ± 0.25 |
| GGACAGCAAUAUUACGAAAU | -1.25 ± 0.11 | -0.0392 ± 0.14 |
